The source of these data is US20250257126A1 (CAMBRIDGE ENTERPRISE, published 2025).

Experiment [1] deals with T1, murine LGR5 transgene (mouse, UniProt Q9Z1P4 22-907).
T1 construct: whole, on cells; Overexpressed in HEK293T cells with N-terminal HA tag, V2 receptor tail and eGFP; also tested as lysate; also called mLGR5; mLGR5-eGFP
T1 sequence (looked up): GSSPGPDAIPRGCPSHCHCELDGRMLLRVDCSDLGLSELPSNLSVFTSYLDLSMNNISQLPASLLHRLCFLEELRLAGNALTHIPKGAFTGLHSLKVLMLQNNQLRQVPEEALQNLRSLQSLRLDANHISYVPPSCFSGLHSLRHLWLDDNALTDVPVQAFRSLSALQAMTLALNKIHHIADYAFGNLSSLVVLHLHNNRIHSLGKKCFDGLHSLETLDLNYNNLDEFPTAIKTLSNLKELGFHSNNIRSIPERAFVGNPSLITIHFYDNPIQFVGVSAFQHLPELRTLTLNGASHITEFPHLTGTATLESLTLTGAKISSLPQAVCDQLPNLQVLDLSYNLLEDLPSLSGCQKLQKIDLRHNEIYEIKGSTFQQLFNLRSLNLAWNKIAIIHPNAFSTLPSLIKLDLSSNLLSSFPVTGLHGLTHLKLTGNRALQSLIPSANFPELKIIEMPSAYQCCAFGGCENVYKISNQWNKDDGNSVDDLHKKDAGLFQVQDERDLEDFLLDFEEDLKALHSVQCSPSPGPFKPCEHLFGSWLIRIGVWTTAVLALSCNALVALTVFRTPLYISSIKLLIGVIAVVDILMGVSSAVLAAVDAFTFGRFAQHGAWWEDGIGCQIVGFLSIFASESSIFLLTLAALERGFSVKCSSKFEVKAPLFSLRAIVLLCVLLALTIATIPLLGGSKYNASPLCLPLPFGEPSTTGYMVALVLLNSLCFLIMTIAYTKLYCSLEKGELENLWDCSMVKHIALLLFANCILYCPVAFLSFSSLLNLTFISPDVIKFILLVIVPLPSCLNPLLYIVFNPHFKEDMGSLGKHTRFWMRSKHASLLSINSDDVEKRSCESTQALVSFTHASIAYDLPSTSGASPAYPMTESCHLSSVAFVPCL
Kind of experiment: western blot of lysates of HEK293T cells expressing the LGR transgenes. On the technique in general: In western blotting, separated proteins are transferred to a membrane and probed.

In experiment [2] the target is T2, human LGR5-eGFP transgene (human, UniProt O75473 22-907).
T2 construct: Tested on live or fixed cells and as cell lysates on western blots; also called hLGR5-eGFP; LGR5-GFP
T2 sequence: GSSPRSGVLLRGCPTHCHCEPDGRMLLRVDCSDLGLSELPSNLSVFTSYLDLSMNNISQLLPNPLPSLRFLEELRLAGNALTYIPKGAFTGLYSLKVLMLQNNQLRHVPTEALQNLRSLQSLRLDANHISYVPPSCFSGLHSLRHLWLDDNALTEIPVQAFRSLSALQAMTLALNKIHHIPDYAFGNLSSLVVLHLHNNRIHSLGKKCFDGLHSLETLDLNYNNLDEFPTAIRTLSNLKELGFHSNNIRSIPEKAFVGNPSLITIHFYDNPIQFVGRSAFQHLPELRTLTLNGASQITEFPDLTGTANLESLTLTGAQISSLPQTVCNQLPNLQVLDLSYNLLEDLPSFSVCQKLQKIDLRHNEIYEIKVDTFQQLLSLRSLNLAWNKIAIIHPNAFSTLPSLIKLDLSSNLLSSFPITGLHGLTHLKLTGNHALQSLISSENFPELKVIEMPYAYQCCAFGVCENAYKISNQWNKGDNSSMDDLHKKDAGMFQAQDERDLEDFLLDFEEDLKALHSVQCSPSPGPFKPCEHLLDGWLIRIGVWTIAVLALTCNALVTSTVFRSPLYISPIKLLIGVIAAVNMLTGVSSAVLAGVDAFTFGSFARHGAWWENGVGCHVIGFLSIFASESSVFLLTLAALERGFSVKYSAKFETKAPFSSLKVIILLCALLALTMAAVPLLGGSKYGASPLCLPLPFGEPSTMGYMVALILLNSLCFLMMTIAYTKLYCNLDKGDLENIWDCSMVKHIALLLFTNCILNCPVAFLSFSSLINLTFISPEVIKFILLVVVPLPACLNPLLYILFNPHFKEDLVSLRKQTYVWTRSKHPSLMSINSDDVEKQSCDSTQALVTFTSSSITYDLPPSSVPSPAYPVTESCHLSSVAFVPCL
The experiment is described as follows: western blot of HEK293T lysates expressing the human LGR family transgenes.

Experiment [3] has as its target T2, human LGR5-eGFP transgene. The experiment is described as follows: western blot of lysates of HEK293T cells expressing mLGR5, hLGR5 or cynoLGR5 transgenes, probed with hybridoma clone 1.
Experiment [4] addresses T1, murine LGR5 transgene. Described as above.
The target in experiment [5] is T2, human LGR5-eGFP transgene. The experiment is described as follows: western blot of lysates of HEK293T cells expressing mLGR5, hLGR5 or cynoLGR5 transgenes, probed with hybridoma clone 4.
In experiment [6] the target is T1, murine LGR5 transgene. The description is as above.
The target in experiment [7] is T2, human LGR5-eGFP transgene. The experiment is described as follows: western blot of lysates of HEK293T cells expressing mLGR5, hLGR5 or cynoLGR5 transgenes, probed with hybridoma clone 3.
Experiment [8] concerns the target T1, murine LGR5 transgene. The description is as above.
For another experiment, the target named is T3, human LGR4 transgene (human, UniProt Q9BXB1 25-951).
T3 construct: whole, on cells; Overexpressed in HEK293T cells with N-terminal HA tag, V2 receptor tail and eGFP; also tested as lysate; also called hLGR4; LGR4-eGFP
Kind of experiment: immunofluorescence of HEK293T cells expressing LGR-eGFP transgenes with α-LGR5v4. From the text: B. Indirect immune fluorescence analysis of human and murine LGR family expressing HEK293T cells using the a-LGR5v4 antibody (in red), the Alexa488-coupled Phalloidin F-actin probe alongside eGFP fluorescence imaging. In the bottom row of images, LGR5-expressing HEK293T cells were stained with a-LGR5v6. C. H&E staining of tissue sections from a-LGR5v6-ADC (top row) and a-LGR5v4-ADC (bottom row) treated mice.

Changes are numbered by the printed parent chain.

B1: hybridoma clone 12 (antibody, V domains shown)
VH: EVQLQQSGPELVKPGASVKISCKASGYTFTDYYMNWVKQSHGKSLEWIGDINPNNGGTIYNQKFKGKATLTVDKSSSTAYMELRSLTSEDSAVYYCASGYLFDYWGPGTTLTVSS
VL: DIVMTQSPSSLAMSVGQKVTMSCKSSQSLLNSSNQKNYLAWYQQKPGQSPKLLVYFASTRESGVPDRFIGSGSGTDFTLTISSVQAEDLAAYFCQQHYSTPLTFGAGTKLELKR
notes: Murine antibody; also called antibody 12
As for B1, the binding result in the experiment with murine LGR5 transgene [1] is “no binding”; in experiment [2], “binds”.

B2: α-LGR5 clone 1 (antibody, mouse IgG1, kappa, V domains shown)
VH: QVQLQQPGAELVKPGASVKLSCKASGYTFTSYWMQWVKQRPGQGLEWIGEIDPSDYYTNYNQKFKGKATLTVDTSSSTAYMQLSSLTSEDSAVYYCARSLSGYVDYWGQGTTLTVSS
VL: DIQMTQSTSSLSASLGDRVTINCRASQDIRNRLNWYQQKPDGTVKLLISYRSRLQSGVPSRFSGSGSGTEYSLTISNLEQEDIATYFCQQGNTLPPTFGGGTKLEVRR
notes: Murine monoclonal antibody from hybridoma; also called hybridoma clone 1; antibody 1
B2: the binding result in [3] was “binds”; with murine LGR5 transgene [4], “no binding”.

B3: α-LGR5 clone 4 (antibody, mouse IgG2b, kappa, V domains shown)
VH: B2 VH with S31D, Y56S, K65Q, M81I, E89D, Y103S
VL: B2 VL with S7T, N22S, R30S, E70D, S76T
notes: Murine monoclonal antibody from hybridoma; also called hybridoma clone 4; antibody 4
Take B3: the values for the binding result (in experiment [5]; with murine LGR5 transgene [6]) were “binds” and “no binding”, respectively.

B4: α-LGR5 clone 3 (antibody, mouse IgG1, kappa, V domains shown)
VH: B2 VH with Y56S, T58S
VL: B2 VL with S7T, N22S, R30S, E70D, Q80E
notes: Murine monoclonal antibody from hybridoma; also called hybridoma clone 3; antibody 3
As for B4, the results for the binding result (in [7]; with murine LGR5 transgene [8]) were “binds” and “no binding”, respectively.

B5: α-LGR5 variant 4 (antibody, human IgG1, kappa, V domains shown)
VH: QVQLVQSGAEVKKPGASVKVSCKASGYTFTNYWMQWVRQAPGQGLEWIGEIDPSDSYTNYNQKFQGRVTLTVDTSTSTAYMELSSLRSEDTAVYYCARSLSGYVDYWGQGTTVTVSS
VL: EIVMTQSPATLSLSPGERATLSCRASQDISNRLNWYQQKPGQAVRLLISYRSRRHTGIPARFSGSGSGTDYTLTISSLEPEDFAVYYCQQGNSLPPTFGGGTKLEIKR
notes: Humanized antibody; also called α-LGR5v4; clone 2.4
On to B5, for which, in the experiment with human LGR4 transgene, the binding result is “no binding”.
